IntAct's records for PubMed 11734542

B1: Protein phosphatase EYA1 (Mus musculus), P97767 (parent)
chain: MEMQDLTSPHSRLSGSSESPSGPKLDSSHINSTSMTPNGTEVKTEPMSSSEIASTAADGSLDSFSGSALGSSSFSPRPAHPFSPPQIYPSKSYPHILPTPSSQTMAAYGQTQFTTGMQQATAYATYPQPGQPYGISSYGALWAGIKTESGLSQSQSPGQTGFLSYGTSFGTPQPGQAPYSYQMQGSSFTTSSGLYSGNNSLTNSSGFNSSQQDYPSYPGFGQGQYAQYYNSSPYPAHYMTSSNTSPTTPSTNATYQLQEPPSGVTSQAVTDPTAEYSTIHSPSTPIKETDSERLRRGSDGKSRGRGRRNNNPSPPPDSDLERVFIWDLDETIIVFHSLLTGSYANRYGRDPPTSVSLGLRMEEMIFNLADTHLFFNDLEECDQVHIDDVSSDDNGQDLSTYNFGTDGFPAAATSANLCLATGVRGGVDWMRKLAFRYRRVKEIYNTYKNNVGGLLGPAKREAWLQLRAEIEALTDSWLTLALKALSLIHSRTNCVNILVTTTQLIPALAKVLLYGLGIVFPIENIYSATKIGKESCFERIIQRFGRKVVYVVIGDGVEEEQGAKKHAMPFWRVSSHSDLMALHHALELEYL
partner: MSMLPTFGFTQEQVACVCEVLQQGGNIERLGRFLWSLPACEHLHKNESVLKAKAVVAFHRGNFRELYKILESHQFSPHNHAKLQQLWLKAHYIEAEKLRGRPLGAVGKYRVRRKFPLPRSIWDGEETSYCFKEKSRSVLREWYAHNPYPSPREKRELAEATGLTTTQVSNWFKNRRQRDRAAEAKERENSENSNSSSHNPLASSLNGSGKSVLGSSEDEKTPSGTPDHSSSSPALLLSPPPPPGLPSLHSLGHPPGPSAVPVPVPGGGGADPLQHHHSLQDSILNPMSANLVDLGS

Variants of: B1
Settings: with six2_mouse Six2, Q62232

| Variant | effect of a mutation on the interaction |
| --- | --- |
| MEMQDLTSPHSRLSGSSESPSGPKLDSSHINSTSMTPNGTEVKTEPMSSSEIASTAADGSLDSFSGSALGSSSFSPRPAHPFSPPQIYPSKSYPHILPTPSSQTMAAYGQTQFTTGMQQATAYATYPQPGQPYGISSYGALWAGIKTESGLSQSQSPGQTGFLSYGTSFGTPQPGQAPYSYQMQGSSFTTSSGLYSGNNSLTNSSGFNSSQQDYPSYPGFGQGQYAQYYNSSPYPAHYMTSSNTSPTTPSTNATYQLQEPPSGVTSQAVTDPTAEYSTIHSPSTPIKETDSERLRRGSDGKSRGRGRRNNNPSPPPDSDLERVFIWDLDKTIIVFHSLLTGSYANRYGRDPPTSVSLGLRMEEMIFNLADTHLFFNDLEECDQVHIDDVSSDDNGQDLSTYNFGTDGFPAAATSANLCLATGVRGGVDWMRKLAFRYRRVKEIYNTYKNNVGGLLGPAKREAWLQLRAEIEALTDSWLTLALKALSLIHSRTNCVNILVTTTQLIPALAKVLLYGLGIVFPIENIYSATKIGKESCFERIIQRFGRKVVYVVIGDGVEEEQGAKKHAMPFWRVSSHSDLMALHHALELEYL [E330K] | decreasing interaction |
| MEMQDLTSPHSRLSGSSESPSGPKLDSSHINSTSMTPNGTEVKTEPMSSSEIASTAADGSLDSFSGSALGSSSFSPRPAHPFSPPQIYPSKSYPHILPTPSSQTMAAYGQTQFTTGMQQATAYATYPQPGQPYGISSYGALWAGIKTESGLSQSQSPGQTGFLSYGTSFGTPQPGQAPYSYQMQGSSFTTSSGLYSGNNSLTNSSGFNSSQQDYPSYPGFGQGQYAQYYNSSPYPAHYMTSSNTSPTTPSTNATYQLQEPPSGVTSQAVTDPTAEYSTIHSPSTPIKETDSERLRRGSDGKSRGRGRRNNNPSPPPDSDLERVFIWDLDETIIVFHSLLTGSYANRYGRDPPTSVSLGLRMEEMIFNLADTHLFFNDLEECDQVHIDDVSSDDNGQDLSTYNFGTDGFPAAATSANLCLATGVRGGVDWMRKLAFRYRRVKEIYNTYKNNVGGLLGPAKREAWLQLRAEIEALTDSWLTLALKALSLIHSRTNCVNILVTTTQRIPALAKVLLYGLGIVFPIENIYSATKIGKESCFERIIQRFGRKVVYVVIGDGVEEEQGAKKHAMPFWRVSSHSDLMALHHALELEYL [L504R] | decreasing interaction |
| MEMQDLTSPHSRLSGSSESPSGPKLDSSHINSTSMTPNGTEVKTEPMSSSEIASTAADGSLDSFSGSALGSSSFSPRPAHPFSPPQIYPSKSYPHILPTPSSQTMAAYGQTQFTTGMQQATAYATYPQPGQPYGISSYGALWAGIKTESGLSQSQSPGQTGFLSYGTSFGTPQPGQAPYSYQMQGSSFTTSSGLYSGNNSLTNSSGFNSSQQDYPSYPGFGQGQYAQYYNSSPYPAHYMTSSNTSPTTPSTNATYQLQEPPSGVTSQAVTDPTAEYSTIHSPSTPIKETDSERLRRGSDGKSRGRGRRNNNPSPPPDSDLERVFIWDLDETIIVFHSLLTGSYANRYGRDPPTSVSLGLRMEEMIFNLADTHLFFNDLEECDQVHIDDVSSDDNGQDLSTYNFGTDGFPAAATSANLCLATGVRGGVDWMRKLAFRYRRVKEIYNTYKNNVGGLLGPAKREAWLQLRAEIEALTDSWLTLALKALPLIHSRTNCVNILVTTTQLIPALAKVLLYGLGIVFPIENIYSATKIGKESCFERIIQRFGRKVVYVVIGDGVEEEQGAKKHAMPFWRVSSHSDLMALHHALELEYL [S486P] | decreasing interaction |
| MEMQDLTSPHSRLSGSSESPSGPKLDSSHINSTSMTPNGTEVKTEPMSSSEIASTAADGSLDSFSGSALGSSSFSPRPAHPFSPPQIYPSKSYPHILPTPSSQTMAAYGQTQFTTGMQQATAYATYPQPGQPYGISSYGALWAGIKTESGLSQSQSPGQTGFLSYGTSFGTPQPGQAPYSYQMQGSSFTTSSGLYSGNNSLTNSSGFNSSQQDYPSYPGFGQGQYAQYYNSSPYPAHYMTSSNTSPTTPSTNATYQLQEPPSGVTSQAVTDPTAEYSTIHSPSTPIKETDSERLRRGSDGKSRGRGRRNNNPSPPPDSDLERVFIWDLDETIIVFHSLLTGSYANRYGRDPPTSVSLGLRMEEMIFNLADTHLFFNDLEECDQVHIDDVSSDDNGQDLSTYNFGTDGFPAAATSANLCLATGVRSGVDWMRKLAFRYRRVKEIYNTYKNNVGGLLGPAKREAWLQLRAEIEALTDSWLTLALKALSLIHSRTNCVNILVTTTQLIPALAKVLLYGLGIVFPIENIYSATKIGKESCFERIIQRFGRKVVYVVIGDGVEEEQGAKKHAMPFWRVSSHSDLMALHHALELEYL [G425S] | decreasing interaction |
